For 1 sequence, Kd results are on record in PMC12781872.

As a reminder, the Kd is the equilibrium constant for the complex coming apart. High values mean weaker binding, low ones tighter binding.

Holding throughout (experiment): FRET
In series [1] the target is RNAP core beta' D359AzF Dylight488;sigmaE rpoC:D359 (Mycobacterium tuberculosis;Mycobacterium tuberculosis) (UniProt P9WGZ1+P9WGZ1+P9WGY9+P9WGY7+P9WGY5+P9WGG7).
For series [2], the target named is RNAP core beta' D359AzF Dylight488;sigmaA rpoC:D359 (Mycobacterium tuberculosis;Mycobacterium tuberculosis) (UniProt P9WGZ1+P9WGZ1+P9WGY9+P9WGY7+P9WGY5+P9WGI1).
For series [3], the target named is RNAP core beta' D359AzF Dylight488;sigmaF rpoC:D359 (Mycobacterium tuberculosis;Mycobacterium tuberculosis) (UniProt P9WGZ1+P9WGZ1+P9WGY9+P9WGY7+P9WGY5+P9WGI3).

Turning to “GTGGCCCTTGTGGGAGCGTCGGCCATAGCGGCCTCCCGGTCGGCTTGCGCTG / CAGCGCAAGCCGACCGGGAGGCCGCTATGGCCGACGCTCCCACAAGGGCCAC / UUUUUUUCCGCUAUG”, the Kd was 335 nM in series [1], 162 nM in series [2] and 21.1 nM in series [3].
